Data from US20190202925A1.

Legend:
[1] = target: human TNFR2 on cells (human) (UniProt P20333); assay: flow cytometry on human PBMC, antibody at 10 ug/mL, anti-human Fc-PE secondary; negative control
[2] = target: cynomolgus TNFR2 on cells (cynomolgus); assay: flow cytometry on cynomolgus PBMC, antibody at 10 ug/mL, anti-human Fc-PE secondary; negative control

Sequence of human TNFR2 on cells (human) (P20333 23-461): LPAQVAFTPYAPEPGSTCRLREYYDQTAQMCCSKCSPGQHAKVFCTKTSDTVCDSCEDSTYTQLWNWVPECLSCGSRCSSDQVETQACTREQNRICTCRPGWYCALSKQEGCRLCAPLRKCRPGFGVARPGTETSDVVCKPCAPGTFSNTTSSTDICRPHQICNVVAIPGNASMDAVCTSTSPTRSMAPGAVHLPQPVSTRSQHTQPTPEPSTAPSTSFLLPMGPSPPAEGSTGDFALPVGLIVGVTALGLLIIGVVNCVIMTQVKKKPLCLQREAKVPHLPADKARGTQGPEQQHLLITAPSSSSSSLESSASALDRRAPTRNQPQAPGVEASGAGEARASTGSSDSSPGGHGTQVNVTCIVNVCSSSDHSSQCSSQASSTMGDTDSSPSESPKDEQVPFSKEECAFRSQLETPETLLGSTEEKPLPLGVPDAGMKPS

% CD4^+ ab^+ Donor 1 [1]: 0.7% | % CD4^+ ab^+ Donor 2 [1]: 0.7% | % CD8^+ ab^+ Donor 1 [1]: 0.5% | % CD8^+ ab^+ Donor 2 [1]: 0.7% | % CD4^+ ab^+ Donor 1 [2]: 0.2% | % CD4^+ ab^+ Donor 2 [2]: 0.5% | % CD8^+ ab^+ Donor 1 [2]: 0.2% | % CD8^+ ab^+ Donor 2 [2]: 0.6%
Substance: Isotype Control (Negative Control) (antibody)
